Experimental data as given in US7470669B2, “Isolated polypeptide comprising a leptin fragment” (Serono Genetics Institute, S.A., priority 1999, dated 2008).

Assays:
[1] = test system: LSR; assay: BUD assay of 125I-LDL in PLC cells transfected with truncated human LSR; assay type: cell-based; conditions: corrected for total protein, depending on oleate concentration
Excerpt: Method of Cloning & Testing. • 1. Digest Human LSR plasmids with enzymes of interest under appropriate conditions. Separate the appropriate insert fragment from the vector using agarose gel electrophoresis and Qiaquick gel extraction columns. Note: For constructs 1, 2, 3, 4a, 5, and 6 pTracerCMV2 LSR α was used as the source for the insert. For construct 4b, pTracerCMV2 LSR α′ was used as the source for the insert. For 4c, pTracerCMV2 LSR β was used as the source for the insert. • 2. Digest the pcDNA/HisMax vector in the appropriate reading frame with the enzymes of interest. Purify using agarose gel electrophoresis and Qiaquick gel extraction columns. • 3. If necessary, treat insert fragments with Klenow DNA polymerase or T4 DNA polymerase I to blunt 3′ overhangs. […] Verify correct clones by having them sequenced to ensure that they are in the proper reading frame and that there are no amino acid changes. • 8. […]
BUD Assay Methods: • 1. […] Remove suramin into gamma counter tubes, and count for radioactivity. […] Recover the cell lysates into gamma counter tubes and count for radioactivity. […] After cell lysates have been counted, determine the protein concentration per mL so that data can be reported as ng ^125I-LDL bound/mg of total protein. Protein is determined using the BCA assay from Pierce according to the manufacturer's instructions. […]

[2] = test system: ob/ob mice; assay: Postprandial plasma TG response after high-fat test meal in ob/ob mice; assay type: in vivo, mouse; conditions: i.v. 0.5 μg recombinant mouse leptin and/or 2.5 mg lactoferrin, mean ± SD
Description: FIGS. 11A and 11B show the effect of mouse leptin (FIG. 11A) or leptin peptide (FIG. 11B) on postprandial plasma TG response in ob/ob mice. […] Postprandial triglyceridemia was measured as described previously. Each point represents the mean±SEM (A: saline, n=8, leptin, n=7; leptin peptide: saline, n=8, leptin, n=8). […] Primary cultures of rat hepatocytes were incubated 30 min at 37° C. with increasing concentrations of mouse leptin peptide. Oleate (0.5 mM) and ^125I-LDL (20 μg/mL) were added and the cells were incubated 2 h at 37° C. After washing, the amount of 125I-LDL bound to the cell surface was measured as described in the Examples section herein.
Mice that were fasted for 2-3 hours were gavage-fed 300 μL of a test meal consisting of 60% fat (37% saturated, 27% mono-, and 36% polyunsaturated fatty acids), 20% protein and 20% carbohydrate, and providing 56 kcal of energy/kg (1.5 g butter, 1.5 g sunflower oil, 2.5 g nonfat dry milk, 2.5 g sucrose and 3 ml water). […] TG concentrations were determined using a commercially available enzymatic kit with controls included in each assay (Precinorm L, Roche-Boehringer Mannheim; Lyotrol N, BioMérieux).
The inhibition of the intestinal absorption of dietary lipids by leptin was also investigated. […] Blood samples were taken at 2 and 3 h after the test meal, and plasma TG concentrations were measured (see Table, below). […]

[3] = test system: bovine brain capillary endothelial cells; assay: Leptin transcytosis in blood-brain barrier in vitro model; assay type: cell-based; conditions: 10 ng/mL 125I-leptin + 2 mg/mL lactoferrin
Description: Cells were incubated with ^125I-leptin alone (10,000 dpm/ng) (closed squares), with 1 μg/mL unlabelled leptin (triangles), 50 μg/mL MP (circles), 50 μg/mL HP (open squares), or 2 mg/mL lactoferrin (asterisks).
Human leptin transport through the blood-brain barrier (BBB) is studied using an in vitro model (Dehouck, et al J Neurochem 54:1798-801, 1990 hereby incorporated herein by reference in its entirety including any figures, tables, or drawings). This model closely mimics the in vivo situation with regard to the selective passage of nutrients and drugs through the cerebro-vascular endothelium. […] Briefly, this model consists of a co-culture of bovine brain capillary endothelial cells (ECs) and rat astrocytes (FIG. 31). The astrocytes are seeded on the plastic of a six-well dish and grown for 3 weeks. […]
Leptin transcytosis: Experiments were performed on brain capillary endothelial cells in coculture with astrocytes for 16 days. […] At the end of the experiment, the amount of radioactivity of each well was counted. […]
The transport of molecules through the endothelial monolayer was determined for each time point as % passage: % passage of radiolabelled molecule through the endothelium: dpm found in the lower compartment at a time point divided by the initial dpm found in the upper compartment: % transport at 30 min=(lower dpm t30/upper dpm)*100.

Molecule	increase in LDL metabolism [1] [fold]	Plasma TG 2-3 hours after test meal [2]	amount of leptin transported [3]
C-terminal portion from AA 353 to 541: truncated human LSR construct, AA 353 to 541 (protein, UniProt Q86X29 353-541, looked up, fragment) PGGYPGDVDRSSSAGGQGSYVPLLRDTDSSVASEVRSGYRIQASQQDDSMRVLYYMEKELANFDPSRPGPPSGRVERAMSEVTSLHEDDWRSRPSRGPALTPIRDEEWGGHSPRSPRGWDQEPAREQAGGGWRARRPRARSVDALDDLTPPSTAESGSRSPTSNGGRSRAYMPPRSRSRDDLYDQDDSR	~2	–	–
Lactoferrin: a milk protein that inhibits the removal of dietary lipid by the liver; inhibitor of LSR (protein, UniProt P02788 20-710, looked up) Lactotransferrin: GRRRSVQWCAVSQPEATKCFQWQRNMRKVRGPPVSCIKRDSPIQCIQAIAENRADAVTLDGGFIYEAGLAPYKLRPVAAEVYGTERQPRTHYYAVAVVKKGGSFQLNELQGLKSCHTGLRRTAGWNVPIGTLRPFLNWTGPPEPIEAAVARFFSASCVPGADKGQFPNLCRLCAGTGENKCAFSSQEPYFSYSGAFKCLRDGAGDVAFIRESTVFEDLSDEAERDEYELLCPDNTRKPVDKFKDCHLARVPSHAVVARSVNGKEDAIWNLLRQAQEKFGKDKSPKFQLFGSPSGQKDLLFKDSAIGFSRVPPRIDSGLYLGSGYFTAIQNLRKSEEEVAARRARVVWCAVGEQELRKCNQWSGLSEGSVTCSSASTTEDCIALVLKGEADAMSLDGGYVYTAGKCGLVPVLAENYKSQQSSDPDPNCVDRPVEGYLAVAVVRRSDTSLTWNSVKGKKSCHTAVDRTAGWNIPMGLLFNQTGSCKFDEYFSQSCAPGSDPRSNLCALCIGDEQGENKCVPNSNERYYGYTGAFRCLAENAGDVAFVKDVTVLQNTDGNNNEAWAKDLKLADFALLCLDGKRKPVTEARSCHLAMAPNHAVVSRMDKVERLKQVLLHQQAKFGRNGSDCPDKFCLFQSETKNLLFNDNTECLARLHGKTTYEKYLGPQYVAGITNLKKCSTSPLLEACEFLRK	–	2.02 ± 0.26^¶ mg/mL	significantly inhibited
